Data from patent CN107522783A (HUABO BIOPHARM MEDICINE TECH SHANGHAI CO LTD, dated 2017).

T1: Recombinant human IL-17A (Sino Biological, 12047-HNAS) (human, UniProt Q16552 24-155)
T1 construct: mature; Bought recombinant protein; also called 人IL-17A; huIL-17A
T1 sequence (looked up): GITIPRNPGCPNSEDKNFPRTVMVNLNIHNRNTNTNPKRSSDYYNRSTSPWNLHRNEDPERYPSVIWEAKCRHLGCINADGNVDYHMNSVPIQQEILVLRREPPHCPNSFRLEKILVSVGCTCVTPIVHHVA

T2: Recombinant marmoset IL-17A (Sino Biological, 90287-CNAE-100) (marmoset, UniProt A0ACM8QD00 24-153)
T2 construct: Bought recombinant protein; also called 狨猴IL-17A
T2 sequence: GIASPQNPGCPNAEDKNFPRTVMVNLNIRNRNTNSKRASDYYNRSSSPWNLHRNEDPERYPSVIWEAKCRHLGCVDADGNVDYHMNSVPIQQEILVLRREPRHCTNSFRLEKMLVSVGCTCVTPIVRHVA

T3: Recombinant mouse IL-17A (Sino Biological, PBV10159R-010) (mouse, UniProt Q62386 26-158)
T3 construct: Bought recombinant protein; also called 小鼠的IL-17A
T3 sequence (looked up): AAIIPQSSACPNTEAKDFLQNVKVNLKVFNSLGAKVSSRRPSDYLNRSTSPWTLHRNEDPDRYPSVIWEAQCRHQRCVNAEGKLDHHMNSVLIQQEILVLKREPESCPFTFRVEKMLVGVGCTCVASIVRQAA

B1: 人源化抗体 (antibody, V domains shown)
VH: QVQLVQSGAEVKKPGASVKVSCKASGYTFTDYAMHWVRQAPGQGLEWMGVIGPYNDNTNYAQKFQGRVTMTVDTSTSTVYMELSSLRSEDTAIYYCARGERYFDYWGQGTTVTVSS
VL: DIQMTQSPSTLSASVGDRVTITCRASDHINNWLAWYQQKPGKAPKLLIYGATSLETGVPSRFSGSGSGTEYTLTISSLQPDDFATYYCQQYWTIPLTFGQGTKLEIK
notes: Expressed in CHO-K1; also called IL17-HC5-1D4/IL17-LC5-1C5; 本发明人源化抗体
B2: 嵌合抗体 (antibody, V domains shown)
VH: QVQLQQSGPEVVRPGVSVKISCKGSGYTFTDYAMHWVKQSHAKSLEWIGVIGPYNDNTNYNQKFKGKATMTVDKSSSTAYMEIARLTSEDSAIYYCARGERYFDYWGQGTTLTVSS
VL: DIQMTQSSSYLSVSLGGRVTITCRASDHINNWLAWYQQKPGNAPRLLIYGATSLETGVPSRFSGSGSGKDYTLSITSLQTEDVATYYCQQYWTIPLTFGAGTKLELK
notes: also called chimeric 14F10/9F6 antibody; 本发明嵌合抗体

Legend:
[1] = biological target: T1, Recombinant human IL-17A (Sino …); test: Biacore SPR, antibody captured on anti-human capture CM5 chip, IL-17A as analyte, 1:1 model
[2] = biological target: T2, Recombinant marmoset IL-17A (Sino …); test: indirect ELISA, marmoset IL-17A coated (Table 6)
[3] = biological target: T1, Recombinant human IL-17A (Sino …); test: indirect ELISA, human IL-17A coated (Table 5, species cross-reactivity)
[4] = biological target: T3, Recombinant mouse IL-17A (Sino …); test: indirect ELISA, mouse IL-17A coated at 1 μg/ml; paragraph 219 says 与小鼠的IL-17A无结合
[5] = biological target: T1, Recombinant human IL-17A (Sino …); test: indirect ELISA, human IL-17A coated at 1 μg/ml

Binder	Kd [1] [nM]	koff [1] [s⁻¹]	kon [1] [M⁻¹ s⁻¹]	EC50 [2] [µg/mL]	EC50 [3] [µg/mL]	binding result [4]	EC50 [5] [µg/mL]
B1	0.019	0.000181	9.56e+06	–	–	–	–
B2	0.097	0.000101	1.04e+06	0.0264	0.03	no binding	0.03
